The record followed here is patent US20110142842A1 (MEDINNOVA, published 2011).

The target of the assay is HLA-A*0201 (human, UniProt A*02:01). Description: REVEAL MHC binding assay (ProImmune).
Regarding YLMDLSYSM [Peptide ID 21 YLMDLSYSM (CD18)], the “% Pass/fail control” value was 198 % of pass/fail control. To LLDPKLCYL [Peptide ID 13 LLDPKLCYL (TCR_TV)] belongs 204 % of pass/fail control; to SMLDDLRNV [Peptide ID 24 SMLDDLRNV (CD18)], 251 % of pass/fail control; to SLQSGILTL [Peptide ID 11 SLQSGILTL (CD127)], 181 % of pass/fail control. To RLLFFLLFL [Peptide ID 112 RLLFFLLFL (CD19)] belongs 42.3 % of pass/fail control; to ELDEELHYV (Modified peptide) [Peptide ID 137 ELDEELHYV (CD33, modified peptide)], 218 % of pass/fail control.

With VMNGTDPEL [Peptide ID 120 VMNGTDPEL (CD2)], the “% Pass/fail control” value is 200 % of pass/fail control.

As to VLWHWLLRT [Peptide ID 105 VLWHWLLRT (CD19)], the “% Pass/fail control” value was 337 % of pass/fail control. To GLADVAVGV (Modified peptide) [Peptide ID 146 GLADVAVGV (CD11a, modified peptide)] belongs 213 % of pass/fail control; to WMGGVSEPL [Peptide ID 116 WMGGVSEPL (MPO)], 199 % of pass/fail control. Consider FLQDTFPQV (Modified peptide) [Peptide ID 132 FLQDTFPQV (CD127, modified peptide)], for which the “% Pass/fail control” value is 216 % of pass/fail control. Under SLFLGILSV (also called peptide #19; pep 19) [Peptide ID 19 SLFLGILSV (CD20)] stands 160 % of pass/fail control. For FLPDAFVTV (Modified peptide) [Peptide ID 133 FLPDAFVTV (TdT, modified peptide)], the “% Pass/fail control” value was 204 % of pass/fail control. Under KIVEWDWKI [Peptide ID 109 KIVEWDWKI (CD48)] stands 236 % of pass/fail control. Under CMAGARVQV [Peptide ID 117 CMAGARVQV (CD50)] stands 158 % of pass/fail control; under HMRPLAIWL [Peptide ID 106 HMRPLAIWL (CD19)], 56.2 % of pass/fail control; under TLQPPWVSV [Peptide ID 26 TLQPPWVSV (CD64)], 197 % of pass/fail control. LLQRPGLQL [Peptide ID 126 LLQRPGLQL (CD64)]: the “% Pass/fail control” value is 231 % of pass/fail control.

ELLDVSWLV (Modified peptide) [Peptide ID 150 ELLDVSWLV (TdT, modified peptide)]: the “% Pass/fail control” value was 239 % of pass/fail control. Under VLAEASASQ [Peptide ID 125 VLAEASASQ (FLT3)] stands 103 % of pass/fail control; under KLGGDLLRA [Peptide ID 129 KLGGDLLRA (CD18)], 229 % of pass/fail control; under ILLWEIFSL [Peptide ID 3 ILLWEIFSL (FLT3)], 199 % of pass/fail control. As for LLMSFFILL [Peptide ID 27 LLMSFFILL (CD53)], the “% Pass/fail control” value was 189 % of pass/fail control. Under YLLDGILFI [Peptide ID 1 YLLDGILFI (TCR_TV)] stands 201 % of pass/fail control; under RLYENRASL [Peptide ID 23 RLYENRASL (HA-1)], 266 % of pass/fail control.

For the molecule ALAVISFLL [Peptide ID 114 ALAVISFLL (CD7)], the “% Pass/fail control” value was 221 % of pass/fail control.

As for LLMVFVALL [Peptide ID 121 LLMVFVALL (CD2)], the “% Pass/fail control” value is 114 % of pass/fail control. For ALYDKTKRI [Peptide ID 115 ALYDKTKRI (TdT_TV2)], the “% Pass/fail control” value is 260 % of pass/fail control. As for LLFIVVLTL [Peptide ID 119 LLFIVVLTL (FLT3)], the “% Pass/fail control” value was 114 % of pass/fail control. Under LLQPFMFRV (Modified peptide) [Peptide ID 135 LLQPFMFRV (MPO, modified peptide)] stands 329 % of pass/fail control.

Take LLFLTPMEV [Peptide ID 108 LLFLTPMEV (CD19)]: the “% Pass/fail control” value was 283 % of pass/fail control. Consider ALAGVLAIL [Peptide ID 30 ALAGVLAIL (MPO)], for which the “% Pass/fail control” value is 210 % of pass/fail control.

With YLRPGQAAV (Modified peptide) [Peptide ID 144 YLRPGQAAV (CD18, modified peptide)], the “% Pass/fail control” value was 227 % of pass/fail control. Under LLSGFFFFA [Peptide ID 29 LLSGFFFFA (CD11a)] stands 210 % of pass/fail control; under KLSLGLPGL [Peptide ID 118 KLSLGLPGL (CD19)], 209 % of pass/fail control; under VIVGSIIMV [Peptide ID 110 VIVGSIIMV (CD53)], 113 % of pass/fail control.

As for YLLRVIETL [Peptide ID 14 YLLRVIETL (HA-1)], the “% Pass/fail control” value is 179 % of pass/fail control. Under LLLPLLLAL [Peptide ID 28 LLLPLLLAL (CD7)] stands 253 % of pass/fail control; under LLWAGALAV (Modified peptide) [Peptide ID 148 LLWAGALAV (CD33, modified peptide)], 272 % of pass/fail control.

For the molecule LLLSGAARV (Modified peptide) [Peptide ID 138 LLLSGAARV (PR3, modified peptide)], the “% Pass/fail control” value was 210 % of pass/fail control. As to LLIPAGIYV (Modified peptide) [Peptide ID 136 LLIPAGIYV (CD20, modified peptide)], the “% Pass/fail control” value is 275 % of pass/fail control. To ILYPINILV (Modified peptide) [Peptide ID 149 ILYPINILV (CD11a, modified peptide)] belongs 321 % of pass/fail control; to PLWGGIMYI [Peptide ID 10 PLWGGIMYI (CD20)], 155 % of pass/fail control; to SLFAAISGM [Peptide ID 124 SLFAAISGM (CD20)], 203 % of pass/fail control. To SLAQVVMKV [Peptide ID 20 SLAQVVMKV (CD11a)] belongs 155 % of pass/fail control; to FVANAIIHL [Peptide ID 111 FVANAIIHL (CD52)], 276 % of pass/fail control; to ALARGLPGV (Modified peptide) [Peptide ID 143 ALARGLPGV (CD7, modified peptide)], 297 % of pass/fail control.

Take FLQPLFLVV (Modified peptide) [Peptide ID 141 FLQPLFLVV (HA-1, modified peptide)]: the “% Pass/fail control” value is 270 % of pass/fail control. For SLSEEVTYV (Modified peptide) [Peptide ID 145 SLSEEVTYV (CLL-1, modified peptide)], the “% Pass/fail control” value is 191 % of pass/fail control. To FLPDAFVTM [Peptide ID 16 FLPDAFVTM (TdT)] belongs 164 % of pass/fail control; to GLYQGLSTV (Modified peptide) [Peptide ID 140 GLYQGLSTV (TCR_TV, modified peptide)], 214 % of pass/fail control; to LLLREHNRL [Peptide ID 113 LLLREHNRL (MPO)], 195 % of pass/fail control. For the molecule ALPAALAVI [Peptide ID 127 ALPAALAVI (CD7)], the “% Pass/fail control” value is 264 % of pass/fail control. To SLHSETWEI [Peptide ID 32 SLHSETWEI (CD11a)] belongs 179 % of pass/fail control; to SMFHVTLKI [Peptide ID 128 SMFHVTLKI (CLL-1)], 307 % of pass/fail control; to LLAEVTLAV (Modified peptide) [Peptide ID 147 LLAEVTLAV (CD53, modified peptide)], 254 % of pass/fail control.

On to YLMDLSYSV (Modified peptide) [Peptide ID 134 YLMDLSYSV (CD18, modified peptide)], for which the “% Pass/fail control” value was 242 % of pass/fail control. Consider YLKDGWHMV [Peptide ID 2 YLKDGWHMV (CD5)], for which the “% Pass/fail control” value is 182 % of pass/fail control. Under LLAPRFLEV (Modified peptide) [Peptide ID 142 LLAPRFLEV (CD50, modified peptide)] stands 218 % of pass/fail control. Regarding VLDIYGFEV [Peptide ID 18 VLDIYGFEV (HA-2)], the “% Pass/fail control” value is 161 % of pass/fail control. KLFTSVFGV [Peptide ID 31 KLFTSVFGV (TdT)]: the “% Pass/fail control” value was 200 % of pass/fail control.

In the case of TVQEGLCVL [Peptide ID 123 TVQEGLCVL (CD33)], the “% Pass/fail control” value is 75.2 % of pass/fail control. As to SLYGPGSYL [Peptide ID 15 SLYGPGSYL (HA-1)], the “% Pass/fail control” value is 198 % of pass/fail control. To YLHVALDLL [Peptide ID 107 YLHVALDLL (MPO)] belongs 278 % of pass/fail control. Under SLTLGNVFV [Peptide ID 122 SLTLGNVFV (CD53)] stands 150 % of pass/fail control; under ILLLVIWKA [Peptide ID 130 ILLLVIWKA (CD18)], 56.7 % of pass/fail control; under ILFAFVSSV [Peptide ID 25 ILFAFVSSV (FLT3)], 221 % of pass/fail control. To FLVNTVLWV [Peptide ID 12 FLVNTVLWV (CD64)] belongs 133 % of pass/fail control. As for SLWRRPFNV [Peptide ID 22 SLWRRPFNV (MPO)], the “% Pass/fail control” value is 301 % of pass/fail control.
